The target of experiment [1] is T1, human IGF-I R (R&D systems, 391-GR-050) (human, UniProt P08069 31-932). The experiment can be described thus: indirect ELISA, hu8C4 at 0.002 nM. As to the method: (§1) Each antigen was diluted in 0.05 M carbonate-bicarbonate (Sigma, C3041) buffer at a concentration of 1 μg/ml, after which the resulting antigen was added into each well of a 96-well plate (Corning, #2592), such that the resulting plate was coated at 4° C. overnight. The plate was washed once with TBS-T, after which TBS-T containing 4%—skim milk was added by 200 μl into each well of the resulting plate in order to inhibit a non-specific binding, such that the resulting plate was reacted at 37° C. for 1 hour. Then, the plate was washed once with TBS-T buffer, after which a primary antibody was sequentially diluted in TBS-T buffer containing 2%—skim milk from a highest concentration of 30 nM to 0.002 nM, such that the resulting antibody was added by 100 μk into each well, thus being reacted at 37° C. for 2 hours. After being washed three times with TBS-T buffer, an anti-human kappa light chains-peroxidase (Sigma, A7164) was diluted at a ratio of 1:5000 as a secondary antibody, after which the resulting antibody was added by 100 μl into each well, thus being reacted at 37° C. for 1 hour. Then, after being washed three times with TBS-T buffer, TMB solution (Sigma, T4444) was added by 100 μl into each well to carry out an color developing reaction, after which 2 N […] solution was added by 50 μl into each well to stop the reaction. An optical density was measured based on a value at a wavelength of 450 nm by using a microplate reader and a reference wavelength of 570 nm was used.
(In general: In an ELISA, binding on a coated surface is turned into a signal by an enzyme label.)

Experiment [2] addresses T2, human MSP R/Ron (R&D systems, 1947-MS-050) (human, UniProt Q04912 25-571, limits assumed). Description: indirect ELISA, hu8C4 at 0.002 nM. As to the method: as §1
Experiment [3] deals with T3, human PDGF Rβ Fc chimera (R&D systems, 385-PR_CF) (human, UniProt P09619 33-530). The experiment can be described thus: indirect ELISA, hu8C4 at 0.002 nM. As to the method:
as §1

The target in experiment [4] is T4, human VEGF R2 Fc chimera (R&D systems, 357-KD_CF) (human, UniProt P35968 20-764).
T4 construct: also called VEGFR R2
Description: indirect ELISA, hu8C4 at 0.002 nM. As to the method:
as §1

The target in experiment [5] is T5, human c-Met Fc chimera (R&D systems, 358-MT_CF) (human, UniProt P08581 25-932).
T5 construct: extracellular domain; also called human c-Met (R&D Systems, 358-MT)
Description: indirect ELISA, hu8C4 at 0.002 nM. Here is the method:
as §1

For experiment [6], the target named is T4, human VEGF R2 Fc chimera (R&D systems, …). The experiment can be described thus: indirect ELISA, hu8C4 at 0.010 nM. As to the method: as §1
Experiment [7] addresses T1, human IGF-I R (R&D systems, 391-GR-050). The experiment can be described thus: indirect ELISA, hu8C4 at 0.048 nM. As to the method: as §1
Experiment [8] has as its target T2, human MSP R/Ron (R&D systems, …). Description: indirect ELISA, hu8C4 at 0.048 nM. Here is the method:
as §1

Experiment [9] addresses T3, human PDGF Rβ Fc chimera (R&D systems, …). The experiment can be described thus: indirect ELISA, hu8C4 at 0.048 nM. Here is the method:
as §1

The target of experiment [10] is T5, human c-Met Fc chimera (R&D systems, …). Description: indirect ELISA, hu8C4 at 0.048 nM. Here is the method:
as §1

Experiment [11] addresses T1, human IGF-I R (R&D systems, 391-GR-050). Description: indirect ELISA, hu8C4 at 1.200 nM. As to the method:
as §1

Experiment [12] has as its target T2, human MSP R/Ron (R&D systems, …). The experiment can be described thus: indirect ELISA, hu8C4 at 1.200 nM. As to the method:
as §1

For experiment [13], the target named is T3, human PDGF Rβ Fc chimera (R&D systems, …). The experiment can be described thus: indirect ELISA, hu8C4 at 1.200 nM. As to the method: as §1
Experiment [14] addresses T4, human VEGF R2 Fc chimera (R&D systems, …). Description: indirect ELISA, hu8C4 at 1.200 nM. As to the method:
as §1

Experiment [15] concerns the target T1, human IGF-I R (R&D systems, 391-GR-050). Description: indirect ELISA, hu8C4 at 6.000 nM. Here is the method: as §1
In experiment [16] the target is T2, human MSP R/Ron (R&D systems, …). The experiment can be described thus: indirect ELISA, hu8C4 at 6.000 nM. Here is the method:
as §1

Experiment [17] has as its target T3, human PDGF Rβ Fc chimera (R&D systems, …). Description: indirect ELISA, hu8C4 at 6.000 nM. As to the method: as §1
In experiment [18] the target is T4, human VEGF R2 Fc chimera (R&D systems, …). The experiment can be described thus: indirect ELISA, hu8C4 at 6.000 nM. Here is the method:
as §1

T3 sequence (P09619 33-530, change not shown): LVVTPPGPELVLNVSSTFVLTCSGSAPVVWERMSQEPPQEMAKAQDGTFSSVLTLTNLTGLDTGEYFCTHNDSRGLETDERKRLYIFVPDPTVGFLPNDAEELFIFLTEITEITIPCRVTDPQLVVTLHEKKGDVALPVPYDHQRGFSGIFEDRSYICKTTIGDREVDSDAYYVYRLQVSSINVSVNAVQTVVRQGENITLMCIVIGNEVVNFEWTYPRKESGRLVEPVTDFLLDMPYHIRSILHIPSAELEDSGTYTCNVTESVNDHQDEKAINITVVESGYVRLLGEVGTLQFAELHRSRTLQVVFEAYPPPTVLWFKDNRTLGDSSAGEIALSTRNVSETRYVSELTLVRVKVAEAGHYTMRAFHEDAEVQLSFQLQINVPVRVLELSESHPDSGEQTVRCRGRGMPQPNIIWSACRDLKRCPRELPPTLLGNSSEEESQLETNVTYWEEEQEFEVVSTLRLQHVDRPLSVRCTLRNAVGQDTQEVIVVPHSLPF
T4 sequence (P35968 20-764, change not shown): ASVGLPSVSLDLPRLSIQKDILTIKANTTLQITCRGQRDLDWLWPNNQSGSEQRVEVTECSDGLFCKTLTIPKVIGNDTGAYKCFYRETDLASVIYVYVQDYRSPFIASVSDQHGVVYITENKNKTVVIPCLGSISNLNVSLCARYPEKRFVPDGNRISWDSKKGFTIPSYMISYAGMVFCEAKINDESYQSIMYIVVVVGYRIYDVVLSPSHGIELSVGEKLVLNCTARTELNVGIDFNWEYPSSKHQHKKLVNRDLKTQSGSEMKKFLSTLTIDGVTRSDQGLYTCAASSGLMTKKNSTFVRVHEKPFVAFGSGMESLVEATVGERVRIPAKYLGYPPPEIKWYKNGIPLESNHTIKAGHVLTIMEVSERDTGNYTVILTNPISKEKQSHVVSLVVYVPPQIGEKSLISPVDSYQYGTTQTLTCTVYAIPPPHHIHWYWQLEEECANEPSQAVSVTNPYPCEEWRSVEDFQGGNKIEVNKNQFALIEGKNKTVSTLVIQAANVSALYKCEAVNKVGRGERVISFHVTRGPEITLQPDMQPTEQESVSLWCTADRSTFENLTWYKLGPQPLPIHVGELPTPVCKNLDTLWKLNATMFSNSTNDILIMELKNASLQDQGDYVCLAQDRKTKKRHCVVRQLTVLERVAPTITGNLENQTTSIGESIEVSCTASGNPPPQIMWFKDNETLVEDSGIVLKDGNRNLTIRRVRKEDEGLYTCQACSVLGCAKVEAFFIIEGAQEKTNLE
T5 sequence (P08581 25-932, change not shown): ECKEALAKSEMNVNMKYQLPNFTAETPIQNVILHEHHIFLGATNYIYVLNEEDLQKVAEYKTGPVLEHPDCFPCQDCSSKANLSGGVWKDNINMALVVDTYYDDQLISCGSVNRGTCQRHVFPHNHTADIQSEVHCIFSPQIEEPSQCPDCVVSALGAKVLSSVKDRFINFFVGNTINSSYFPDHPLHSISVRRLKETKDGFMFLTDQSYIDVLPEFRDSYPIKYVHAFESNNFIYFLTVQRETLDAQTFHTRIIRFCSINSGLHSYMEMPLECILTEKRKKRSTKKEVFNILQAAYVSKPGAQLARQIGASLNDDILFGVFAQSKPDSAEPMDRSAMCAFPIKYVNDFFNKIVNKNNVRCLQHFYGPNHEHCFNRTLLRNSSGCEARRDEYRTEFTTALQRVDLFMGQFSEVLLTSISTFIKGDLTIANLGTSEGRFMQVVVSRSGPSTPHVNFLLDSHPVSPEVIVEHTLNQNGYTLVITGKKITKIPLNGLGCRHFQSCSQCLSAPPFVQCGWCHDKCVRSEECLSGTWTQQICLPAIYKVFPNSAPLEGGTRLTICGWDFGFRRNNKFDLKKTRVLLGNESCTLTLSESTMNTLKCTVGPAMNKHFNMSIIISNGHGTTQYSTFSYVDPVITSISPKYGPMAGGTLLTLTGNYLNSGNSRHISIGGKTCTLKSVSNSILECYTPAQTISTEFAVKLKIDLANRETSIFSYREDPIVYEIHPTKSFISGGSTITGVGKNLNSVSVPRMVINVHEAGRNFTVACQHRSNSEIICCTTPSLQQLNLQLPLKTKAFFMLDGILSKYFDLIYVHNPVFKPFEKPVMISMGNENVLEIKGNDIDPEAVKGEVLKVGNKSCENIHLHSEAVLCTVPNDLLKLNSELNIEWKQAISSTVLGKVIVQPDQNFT

B1: hu8C4 (IgG1 humanized antibody having a hinge region of SEQ ID NO: 38 in hu8C4-1) (antibody, V domains shown)
VH: EVQLVESGGGLVQPGGSLRLSCAASGYTFSDYYINWVRQAPGKGLEWIGEIFPGSGNTHFSARFKGRATLSADKSKNTAYLQMNSLRAEDTAVYYCAGGDYGFLYWGQGTLVTVSS
VL: DIQMTQSPSSLSASVGDRVTITCGASENIYGALNWYQQKPGKAPKLLIYGATNLADGVPSRFSGSGSGRDFTFTISSLQPEDIATYYCQNVLSSPYTFGQGTKVEIK
notes: light chain detected with anti-human kappa; also called anti-c-Met antibody hu8C4; hu8C4 monospecific antibody
For the molecule B1, the “A450 nm-A570 nm” value in experiment [1] was 0 A450 nm-A570 nm; in experiment [2] it was 0 A450 nm-A570 nm; in [3], -0.01 A450 nm-A570 nm; in experiment [4], -0.01 A450 nm-A570 nm; in experiment [5], 0.05 A450 nm-A570 nm; in [6] it was -0.01 A450 nm-A570 nm. For the same molecule, the “A450 nm-A570 nm” value was 0 A450 nm-A570 nm in experiment [7]; 0 A450 nm-A570 nm in experiment [8]; -0.01 A450 nm-A570 nm in experiment [9]; 0.76 A450 nm-A570 nm in experiment [10]; 0 A450 nm-A570 nm in experiment [11]; 0 A450 nm-A570 nm in [12]. Also, the “A450 nm-A570 nm” value in experiment [13] was -0.01 A450 nm-A570 nm; in experiment [14] it was -0.01 A450 nm-A570 nm; in [15], 0 A450 nm-A570 nm; in [16] it was 0 A450 nm-A570 nm; in experiment [17], -0.01 A450 nm-A570 nm; in [18] it was -0.01 A450 nm-A570 nm.
